Data on 1 protein can be found in PMC4414373, “Relevance of glycosylation of S-layer proteins for cell surface properties” (Acta Biomaterialia, 2015).

The data set concerns the molecule itself. Put plainly: atomic force microscopy; S-layer (glyco)protein at 50 ug/mL recrystallized on gold-coated SPR and QCM-D sensor surfaces; lattice imaged in contact mode in a liquid cell under 100 mM NaCl.

B1: recombinant S-layer protein rSgsE(131-903), 130 amino acid N-terminal truncation of SgsE (domain or fragment, UniProt Q8VTF1 131-903, looked up)
chain: ATKLDKMRQELKAAVDAKDLKKAEELYHKISYELKTRTVILDRVYGQSTRELLRSTFKADAQALRDSLIYDITVAMKAREAQDAVKAGNLDKAKAALDQVNQYVSKVTDAFKAELQKAAQDAKAAYEAALPPKVESVTAVNAKTLEIKFNKAVDAATVIDNKGTSDTSDDVVKATAITLKAIDDQVPVSTVKASLSDDKKTLKLVVDGAQFFTKRYVVDIKNVKTLDGKDVPAYTTTIDTTDSVRPSVLSFSYADNGLTLKVKFSEPLASVGTVKLYDGTTEISVSPKFTAGDDEMTINLASSSVPVNKDLTLKIFGAVDYNGNVINPNPAELTVKKTTVDITKPVVQSIEAVNTKTVKVTFSEKLLSAPTIKIGGQTASVSVDSTGLVYTATLASALSKGVYAVEVSDYKDLAGNSGDAYTKVVQLKADNTAPKFVSSQVVKINGVEHLVLTFDEEVTTGSNITVVQSSDKYIDENNVLKAVGADLKTTSDNFKLYLPTDGKSKSVALNISSLPKGTYTVTLPNGLVSDLADNPYAERKQITFVRGSDSLTTKPALDKDYDSNGVKADNNNELVFAFTQNLDASALNLSNFNINGLTVTKAVFDGDTKHIRVTLAPGANTWTGTHVITISNIKNTSGLVMDTVTVNEYMKENVAPTFTATLTSADVIRVDFSEPVANATISRALSANNFIVKVDGNVVTVSNVYEDNNATNLVQGSKGYKTVYLKLQSPVTDLSKPITLSATDIVDVNQTGAITDNNVVGNNVSATVVNVAK
notes: S-layer protein SgsE of Geobacillus stearothermophilus NRS 2004/3a, residues 131-903; non-glycosylated; calculated molecular weight 82,800 Da; also called recombinantly produced non-glycosylated form of SgsE; source: E. coli BL21 Star (DE3), purified
On to B1, for which the binding result is reported as “binds”.
